From patent US9988424 (DUKE UNIVERSITY, dated 2018)
Like-named read-outs stand apart in the source and are kept apart here.

Assays:
Assay in all cases: ELISA, OD405 at 10 ug/ml
D.9009SA V1/V2 tags [1] = biological target: D.9009SA V1/V2 tags
G.con gp140CF [2] = biological target: G.con gp140CF
Con 6 gp120 [3] = biological target: Con 6 gp120
B.9021 gp140C [4] = biological target: B.9021 gp140C (HIV-1)
A.9004SS V1/V2 tags [5] = biological target: T1, A.9004SS V1/V2 tags
T1 V1V2 tags construct: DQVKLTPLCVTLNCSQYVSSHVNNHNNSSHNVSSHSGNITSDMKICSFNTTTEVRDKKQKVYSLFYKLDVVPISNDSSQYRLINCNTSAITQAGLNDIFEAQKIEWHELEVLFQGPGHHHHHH

B.HXB/BAL gp140CFI [6] = biological target: T2, B.HXB/BAL gp140CFI (HIV-1, UniProt P04578 33-680)
T2 construct: also called B.HxB/Ba gp140 CFI

C.CAP206 gp140CF.12 [7] = biological target: C.CAP206 gp140CF.12 (HIV-1)
B.62357 gp140C [8] = biological target: T3, B.62357 gp140C
T3 construct: also called B.62357 140C

AE.97CNG2XF gp140CF [9] = biological target: T4, AE.97CNG2XF gp140CF (HIV-1)
T4 construct: also called E.97CNGX2F gp140CF

C.1086 gp120 = C.1086 gp120 (HIV-1)
C.1086 V1V2 Tags [10] = biological target: C.1086 V1V2 Tags (HIV-1)
C.1086 gp140 = biological target: T5, C.1086 gp140
T5 construct: also called C.1086gp140C

G.con gp140CF [11] = biological target: G.con gp140CF; remark: listed apart in the source
Con 6 gp120 [12] = biological target: Con 6 gp120; remark: listed apart in the source
B.9021 gp140C [13] = biological target: B.9021 gp140C (HIV-1); remark: listed apart in the source
A.9004SS V1/V2 tags [14] = biological target: T1, A.9004SS V1/V2 tags
AE.con gp140CF = biological target: AE.con gp140CF
AE.A244 V1V2 Tags = AE.A244 V1V2 Tags (HIV-1)
gp70 B.CaseA2 V1/V2 = biological target: T6, gp70 B.CaseA2 V1/V2 (HIV-1 V1V2 on murine leukemia virus gp70)
T6 construct: also called B.gp70CaseA2 V1/V2; gp70 B.CaseAV1V2
T6 chain: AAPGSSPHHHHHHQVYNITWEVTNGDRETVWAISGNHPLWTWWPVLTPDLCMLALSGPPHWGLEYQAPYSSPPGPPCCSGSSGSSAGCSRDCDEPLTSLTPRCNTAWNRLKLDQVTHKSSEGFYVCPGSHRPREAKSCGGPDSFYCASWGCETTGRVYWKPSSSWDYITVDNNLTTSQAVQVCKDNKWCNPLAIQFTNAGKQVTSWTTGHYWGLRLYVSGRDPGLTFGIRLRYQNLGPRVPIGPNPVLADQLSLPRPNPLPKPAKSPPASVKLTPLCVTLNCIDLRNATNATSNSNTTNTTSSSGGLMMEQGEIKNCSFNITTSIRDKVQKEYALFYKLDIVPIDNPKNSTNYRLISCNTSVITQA

B.HXB/BAL gp140CFI [15] = biological target: T2, B.HXB/BAL gp140CFI; remark: listed apart in the source
C.CAP206 gp140CF.12 [16] = biological target: C.CAP206 gp140CF.12 (HIV-1); remark: listed apart in the source
B.63521_V1/V2 tags = biological target: B.63521_V1/V2 tags
B.62357 gp140C [17] = biological target: T3, B.62357 gp140C; remark: listed apart in the source
AE.97CNG2XF gp140CF [18] = biological target: T4, AE.97CNG2XF gp140CF; remark: listed apart in the source
B.con gp140CF = biological target: B.con gp140CF
B.Case A2 V1/V2 tags = biological target: B.Case A2 V1/V2 tags
B.040 gp140C = biological target: B.040 gp140C
C.1086 V1V2 Tags [19] = biological target: C.1086 V1V2 Tags (HIV-1); remark: listed apart in the source
A.Q23 V1V2 tags = A.Q23 V1V2 tags (HIV-1)
D.9009SA V1/V2 tags [20] = biological target: D.9009SA V1/V2 tags; remark: listed apart in the source
AE.A244 gp120 delta 11 = biological target: T7, AE.A244 gp120 delta 11 (HIV-1)
T7 construct: also called E.A244gp120Δ11; AE.A244 Δ11 gp120

Measured: binding result

B1: 697D (antibody, V domains shown)
VH: QVQLVQSGAEVKKPGSSVKVSCKASGGNFNTYTISWVRQAPGQGLEWMGRIIPIFGIVNPAQKFPGRVTINVDKSTNTAYMELSSLRSEDTAVYYCATSGVGLHFGYFDYWGQGTQVTVSS
VL: QSVLTQPPSVSGAPGQRVTISCTGSSSNIGAHYDVHWYQQLPGTAPKLLIYGNSNRPSGVPDRFSGSKSGTSASLAITGLQAEDEADYYCQSYDSSLSGYVFGTGTKVTVL
notes: also called mAb 697D; V2 conformational mAb 697D
no binding (tested: 10 ug/ml): D.9009SA V1/V2 tags [1]

B2: 697D reverted unmutated ancestor antibody (antibody, V domains shown)
VH: QVQLVQSGAEVKKPGSSVKVSCKASGGTFSSYTISWVRQAPGQGLEWMGRIIPILGIANYAQKFQGRVTITADKSTSTAYMELSSLRSEDTAVYYCATSGVGLHFGYFDYWGQGTLVTVSS
VL: QSVLTQPPSVSGAPGQRVTISCTGSSSNIGAGYDVHWYQQLPGTAPKLLIYGNSNRPSGVPDRFSGSKSGTSASLAITGLQAEDEADYYCQSYDSSLSGYVFGTGTKVTVL
notes: also called 697D RUA
no binding (tested: 10 ug/ml): G.con gp140CF [2] | Con 6 gp120 [3] | B.9021 gp140C [4] | A.9004SS V1/V2 tags [5] | B.HXB/BAL gp140CFI [6] | C.CAP206 gp140CF.12 [7] | B.62357 gp140C [8] | AE.97CNG2XF gp140CF [9] | C.1086 gp120 | C.1086 V1V2 Tags [10] | C.1086 gp140

B3: PG9 reverted unmutated ancestor antibody (antibody, V domains shown)
VH: QVQLVESGGGVVQPGRSLRLSCAASGFTFSSYGMHWVRQAPGKGLEWVAVISYDGSNKYYADSVKGRFTISRDNSKNTLYLQMNSLRAEDTAVYYCAREAGGPDYRNGYNYYDFWSGYYNYYYMDVWGKGTTVTVSS
VL: QSALTQPASVSGSPGQSITISCTGTSSDVGSYNLVSWYQQHPGKAPKLMIYEVSKRPSGVSNRFSGSKSGNTASLTISGLQAEDEADYYCCSLTSTRRWVFGGGTKLTVL
notes: also called PG9 RUA; PG9_RUA
not listed: D.9009SA V1/V2 tags [1] | G.con gp140CF [2] | Con 6 gp120 [3] | B.9021 gp140C [4] | A.9004SS V1/V2 tags [5] | B.HXB/BAL gp140CFI [6] | C.CAP206 gp140CF.12 [7] | B.62357 gp140C [8] | AE.97CNG2XF gp140CF [9] | C.1086 gp120 | C.1086 V1V2 Tags [10] | C.1086 gp140
no binding (tested: 10 ug/ml): all other assays above
